Source: patent US20250082772A1
pEC50: −log10 of the molar value.

How the values were obtained:
[1] = target: recombinant mouse CD71 (Sino Biological Inc., Beijing, China) (mouse) (UniProt Q62351); experiment: plate binding to coated recombinant mouse CD71, Alexa Fluor 488 labeled secondary antibody, fluorescence
[2] = target: recombinant mouse CD71 (Sino Biological Inc., Beijing, China) (mouse) (UniProt Q62351); experiment: plate binding to coated recombinant mouse CD71; EC50 of the conjugate against that of clone R17
[3] = target: recombinant mouse CD71 (Sino Biological Inc., Beijing, China) (mouse) (UniProt Q62351); experiment: plate binding to coated recombinant mouse CD71, RiboGreen fluorescence detection of the conjugate's siRNA
[4] = target: CD71 on primary hepatocytes; experiment: cell-based or functional assay

Sequence of UniProt Q62351 (Q62351 89-763 limits assumed): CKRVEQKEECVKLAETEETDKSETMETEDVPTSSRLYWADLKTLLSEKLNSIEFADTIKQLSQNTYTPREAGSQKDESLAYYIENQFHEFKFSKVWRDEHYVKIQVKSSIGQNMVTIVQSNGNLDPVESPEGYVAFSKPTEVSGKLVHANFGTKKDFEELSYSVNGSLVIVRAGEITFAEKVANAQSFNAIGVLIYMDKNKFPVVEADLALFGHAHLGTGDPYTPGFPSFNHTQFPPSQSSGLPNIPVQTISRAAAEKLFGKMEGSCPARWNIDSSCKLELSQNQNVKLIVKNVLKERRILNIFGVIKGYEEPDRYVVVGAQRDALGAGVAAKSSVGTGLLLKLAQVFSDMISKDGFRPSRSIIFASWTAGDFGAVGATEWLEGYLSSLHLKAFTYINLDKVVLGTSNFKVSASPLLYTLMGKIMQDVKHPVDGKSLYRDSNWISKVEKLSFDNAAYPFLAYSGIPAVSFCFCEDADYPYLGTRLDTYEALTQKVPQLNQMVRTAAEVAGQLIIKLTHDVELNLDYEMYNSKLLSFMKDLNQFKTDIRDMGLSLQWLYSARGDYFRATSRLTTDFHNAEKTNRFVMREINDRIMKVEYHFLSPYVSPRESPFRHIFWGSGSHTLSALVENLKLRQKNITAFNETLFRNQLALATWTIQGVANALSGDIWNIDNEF

anti-CD71 antibody (clone R17 217.1.3) purchased from Bio X Cell
pEC50 [1]: 8.82

clone R17 Fab'-siHPRT conjugate linked with the maleimide linker
fold difference of EC50 between clone R17 and the conjugate [2]: 20 fold
pEC50 [3]: 7.54

clone R17 Fab'-siApoB conjugate linked with the maleimide linker
EC50 in inhibiting of ApoB gene expression (primary hepatocytes, quantitative PCR) [4]: 11 nM
silencing of ApoB at 900 nM (primary hepatocytes, quantitative PCR) [4]: 46%
